Target: T1, cyclo-CLLFCL (head-to-tail cyclic peptide)
T1 chain: CLLFCL
Assay: microscale thermophoresis

Kd: 470 nM
B1: HIF-1α PAS-B (protein)
chain: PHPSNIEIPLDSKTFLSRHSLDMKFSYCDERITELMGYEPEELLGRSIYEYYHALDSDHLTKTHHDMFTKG

Source: PMC11494503 (2024)
